For one molecule, IC50 results are on record in patent US20120283421A1 (published 2012).

This experiment addresses T1, nine-person peanut-specific IgE antibody pool.
T1 construct: polyclonal human serum IgE; also called pooled serum; peanut-positive serum pool
As to the kind of experiment: competitive ELISA inhibition, pooled serum IgE on coated crude peanut. (In general: An ELISA detects its analyte on a solid surface through an enzyme-linked reagent.)

In general, IC50 refers to the concentration needed to halve the response being measured. A lower IC50 goes with greater potency.

B1: Ara h 1 (purified from peanut) (other)
chain: KSSPYQKKTENPCAQRCLQSCQQEPDDLKQKACESRCTKLEYDPRCVYDPRGHTGTTNQRSPPGERTRGRQPGDYDDDRRQPRREEGGRWGPAGPREREREEDWRQPREDWRRPSHQQPRKIRPEGREGEQEWGTPGSHVREETSRNNPFYFPSRRFSTRYGNQNGRIRVLQRFDQRSRQFQNLQNHRIVQIEAKPNTLVLPKHADADNILVIQQGQATVTVANGNNRKSFNLDEGHALRIPSGFISYILNRHDNQNLRVAKISMPVNTPGQFEDFFPASSRDQSSYLQGFSRNTLEAAFNAEFNEIRRVLLEENAGGEQEERGQRRWSTRSSENNEGVIVKVSKEHVEELTKHAKSVSKKGSEEEGDITNPINLREGEPDLSNNFGKLFEVKPDKKNPQLQDLDMMLTCVEIKEGALMLPHFNSKAMVIVVVNKGTGNLELVAVRKEQQQRGRREEEEDEDEEEEGSNREVRRYTARLKEGDVFIMPAAHPVAINASSELHLLGFGINAENNHRIFLAGDKDNVIDQIEKQAKDLAFPGSGEQVEKLIKNQKESHFVSARPQSQSQSPSSPEKESPEKEDQEEENQGGKGPLLSILKAFN
modifications: glycoprotein (PAS positive); fluorescein-labelled tracer in Example 6
notes: Native allergen from peanut extract; Forms trimers and hexamers
With B1, the IC50 came out at 5.5 ng/mL.
